Consider 2 sequences from US20130310442.

Data set [1] concerns the target biotinylated human D-SDF-1 (Homo sapiens) (UniProt P48061). Put plainly: pulldown. The conditions noted are these: single Kd stated after naming 193-C2-002 and 193-G2-012.
The target in data set [2] is human SDF-1alpha (CXCL12) (Homo sapiens) (UniProt P48061). Briefly: SPR. The settings on record: L-RNA; 5'-40 kDa PEG; Biacore 2000, 37 C. On the technique in general: In SPR one partner is held on a chip, and binding of the other changes the refractive index at the surface.
human SDF-1alpha (CXCL12) (Homo sapiens), sequence (P48061 22-89): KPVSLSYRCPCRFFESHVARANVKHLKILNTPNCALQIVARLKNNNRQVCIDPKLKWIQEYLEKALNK

One may read the Kd as the constant that tells how readily two partners part at equilibrium. Lower therefore signals higher affinity.

biotinylated human D-SDF-1 (Homo sapiens), sequence (P48061 22-92): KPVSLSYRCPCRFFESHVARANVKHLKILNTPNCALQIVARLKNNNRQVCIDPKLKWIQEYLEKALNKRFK

Turning to “GCGUGGUGUGAUCUAGAUGUAGUGGCUGAUCCUAGUCAGGUACGC [193-C2-002 (D)]”, the Kd in data set [1] was determined as 0.3 nM.

Sequence “GCGUGGUGUGAUCUAGAUGUAUUGGCUGAUCCUAGUCAGGUACGC [NOX-A12 (193-G2-012-5'-PEG)]” returned a Kd in data set [2] of 0.2 nM.
